The values below come from the supplement of paper PMC9112550, “Optimization of the antimicrobial peptide Bac7 by deep mutational scanning” (BMC Biology, 2022).

For the data set, the system named is Escherichia coli TOP10. Kind of data set: shrunken log2 fold change of peptide-encoding DNA abundance (4.5 h post-induction vs induction); higher = less antimicrobial activity (less host growth inhibition). Particulars: time post-induction: 4.5 h; library: site-saturation at positions 5, 18, 19, 20.
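Note: peptides expressed intracellularly from a pBAD plasmid library in pooled LB shake-flask culture, induced with 0.3% L-arabinose, DNA abundance read by NGS, three biological replicates, DESeq2 with apeglm shrinkage.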

For RRIRLRPPRLPRPRPRPGNHPRP, the “shrunken log2 fold change” value was -0.267.

Take RRIRYRPPRLPRPRPRPAFDPRP: the “shrunken log2 fold change” value is 0.105. RRIRDRPPRLPRPRPRPDRYPRP: the “shrunken log2 fold change” value is -0.395. Next, RRIRIRPPRLPRPRPRPRKEPRP: 0.00489; RRIRCRPPRLPRPRPRPTSLPRP: -0.167; RRIRRRPPRLPRPRPRPTSSPRP: 0.04.

As for RRIRTRPPRLPRPRPRPEFRPRP, the “shrunken log2 fold change” value was -0.0543.

On to RRIRVRPPRLPRPRPRPDAKPRP, for which the “shrunken log2 fold change” value worked out at 0.0516. For RRIRFRPPRLPRPRPRPGMAPRP, the “shrunken log2 fold change” value is -0.058.

Consider RRIRRRPPRLPRPRPRPIIMPRP, for which the “shrunken log2 fold change” value is -0.444. As to RRIRFRPPRLPRPRPRPDENPRP, the “shrunken log2 fold change” value was -0.0759.

RRIRIRPPRLPRPRPRPDDTPRP: the “shrunken log2 fold change” value is -0.131. The value for RRIRYRPPRLPRPRPRPMTDPRP was -0.0354; that for RRIRWRPPRLPRPRPRPVSIPRP was 0.235; that for RRIRGRPPRLPRPRPRPRCVPRP was 0.689. For RRIRLRPPRLPRPRPRPDMVPRP, the “shrunken log2 fold change” value is -0.175. Next, RRIRERPPRLPRPRPRPDIQPRP: 3.69; RRIRPRPPRLPRPRPRPHGKPRP: 0.0675. With RRIRVRPPRLPRPRPRPGQPPRP, the “shrunken log2 fold change” value came out at 0.0218. The value for RRIRNRPPRLPRPRPRPTTHPRP was 0.102. The value for RRIRGRPPRLPRPRPRPKTHPRP was 0.947. Next, RRIRDRPPRLPRPRPRPPQCPRP: 0.243. On to RRIRQRPPRLPRPRPRPYMLPRP, for which the “shrunken log2 fold change” value is -0.168. Next, RRIRSRPPRLPRPRPRPVWWPRP: 0.131; RRIRHRPPRLPRPRPRPGVSPRP: 0.0185. The value for RRIRDRPPRLPRPRPRPKLHPRP was 0.464; that for RRIRWRPPRLPRPRPRPCDSPRP was -0.00192. Next, RRIRSRPPRLPRPRPRPAKVPRP: -0.0898; RRIRVRPPRLPRPRPRPFQWPRP: -0.126. For the sequence RRIRVRPPRLPRPRPRPWWRPRP, the “shrunken log2 fold change” value was 1.25. The value for RRIRPRPPRLPRPRPRPFVGPRP was -0.297. Next, RRIRTRPPRLPRPRPRPFICPRP: -0.292. The value for RRIRLRPPRLPRPRPRPADSPRP was -0.182. Regarding RRIRKRPPRLPRPRPRPCAAPRP, the “shrunken log2 fold change” value was 0.421. The value for RRIRKRPPRLPRPRPRPSNRPRP was -0.00152. Next, RRIRDRPPRLPRPRPRPMGMPRP: -0.069; RRIRNRPPRLPRPRPRPEYPPRP: -0.243; RRIRERPPRLPRPRPRPRYAPRP: -0.118. The value for RRIRGRPPRLPRPRPRPNYTPRP was -0.338. RRIRTRPPRLPRPRPRPRYTPRP: the “shrunken log2 fold change” value came out at 0.0216. The value for RRIRFRPPRLPRPRPRPDCFPRP was -0.00719; that for RRIRERPPRLPRPRPRPQIFPRP was -0.0392; that for RRIRGRPPRLPRPRPRPTGDPRP was 0.782.

As to RRIRVRPPRLPRPRPRPAACPRP, the “shrunken log2 fold change” value amounted to 0.244. Next, RRIRYRPPRLPRPRPRPIPPPRP: -0.171; RRIRRRPPRLPRPRPRPYYQPRP: -0.617; RRIRPRPPRLPRPRPRPEIGPRP: 0.0772.

Turning to RRIRNRPPRLPRPRPRPNPDPRP, the “shrunken log2 fold change” value was -0.322.

On to RRIRWRPPRLPRPRPRPRTGPRP, for which the “shrunken log2 fold change” value stood at 0.235. Next, RRIRMRPPRLPRPRPRPKGIPRP: 0.0647; RRIRVRPPRLPRPRPRPQHVPRP: -0.0853. Next, RRIRERPPRLPRPRPRPSRHPRP: -0.439; RRIRNRPPRLPRPRPRPFYMPRP: -0.18. As for RRIRPRPPRLPRPRPRPCDKPRP, the “shrunken log2 fold change” value is 0.0695. Regarding RRIRLRPPRLPRPRPRPYKVPRP, the “shrunken log2 fold change” value is -0.756. For the sequence RRIRHRPPRLPRPRPRPVWLPRP, the “shrunken log2 fold change” value was -0.0368.

Take RRIRYRPPRLPRPRPRPLYFPRP: the “shrunken log2 fold change” value is -1.15. Next, RRIRKRPPRLPRPRPRPLFPPRP: 0.161; RRIRKRPPRLPRPRPRPLLKPRP: 0.00409. Next, RRIRGRPPRLPRPRPRPEFYPRP: 0.0687; RRIRPRPPRLPRPRPRPFIFPRP: 0.29; RRIRERPPRLPRPRPRPHRRPRP: 0.0407. On to RRIRMRPPRLPRPRPRPPSSPRP, for which the “shrunken log2 fold change” value was -0.0366. The value for RRIRNRPPRLPRPRPRPAHVPRP was -0.0508; that for RRIRTRPPRLPRPRPRPYLAPRP was -0.378. Next, RRIRERPPRLPRPRPRPMNRPRP: -0.401; RRIRERPPRLPRPRPRPWEHPRP: -0.221; RRIRPRPPRLPRPRPRPRIFPRP: -0.0669.

As for RRIRIRPPRLPRPRPRPSCPPRP, the “shrunken log2 fold change” value was -0.776. With RRIRVRPPRLPRPRPRPINQPRP, the “shrunken log2 fold change” value is -0.749. Next, RRIRKRPPRLPRPRPRPYLDPRP: -0.0998. The value for RRIRMRPPRLPRPRPRPKLQPRP was 0.273. The value for RRIRGRPPRLPRPRPRPDVNPRP was 0.245; that for RRIRERPPRLPRPRPRPFAAPRP was 0.229. RRIRVRPPRLPRPRPRPAIFPRP: the “shrunken log2 fold change” value is 0.0175.

For RRIRPRPPRLPRPRPRPSYTPRP, the “shrunken log2 fold change” value was -0.868. Take RRIRPRPPRLPRPRPRPEMQPRP: the “shrunken log2 fold change” value was found to be 1.05. Next, RRIRHRPPRLPRPRPRPGITPRP: -0.453; RRIRHRPPRLPRPRPRPFIDPRP: -0.121.

Regarding RRIRQRPPRLPRPRPRPVLRPRP, the “shrunken log2 fold change” value is -0.027.

Regarding RRIRYRPPRLPRPRPRPAHDPRP, the “shrunken log2 fold change” value is -1.14. The value for RRIRPRPPRLPRPRPRPYRVPRP was 0.101; that for RRIRWRPPRLPRPRPRPHKFPRP was -0.307. Next, RRIRMRPPRLPRPRPRPASSPRP: -0.00458; RRIRDRPPRLPRPRPRPKIYPRP: -0.684. Next, RRIRKRPPRLPRPRPRPRMAPRP: 0.818. On to RRIRLRPPRLPRPRPRPEHKPRP, for which the “shrunken log2 fold change” value is -0.0822.

As to RRIRKRPPRLPRPRPRPSLYPRP, the “shrunken log2 fold change” value worked out at 0.0834. The value for RRIRDRPPRLPRPRPRPERKPRP was 0.0234. The value for RRIRSRPPRLPRPRPRPVKLPRP was -0.104. The value for RRIRVRPPRLPRPRPRPCCYPRP was -0.272; that for RRIRCRPPRLPRPRPRPAWVPRP was 0.316; that for RRIRHRPPRLPRPRPRPGFMPRP was 0.0294.

Take RRIRERPPRLPRPRPRPPIRPRP: the “shrunken log2 fold change” value was -0.0192. As for RRIRNRPPRLPRPRPRPTCFPRP, the “shrunken log2 fold change” value is 0.0784.

Regarding RRIRSRPPRLPRPRPRPWARPRP, the “shrunken log2 fold change” value came to 0.0355.

As for RRIRERPPRLPRPRPRPNVIPRP, the “shrunken log2 fold change” value was -1.38.

RRIRFRPPRLPRPRPRPSIRPRP: the “shrunken log2 fold change” value is -0.288.

Consider RRIRVRPPRLPRPRPRPQPWPRP, for which the “shrunken log2 fold change” value was 0.152. RRIRQRPPRLPRPRPRPACWPRP: the “shrunken log2 fold change” value was 0.401. The value for RRIRKRPPRLPRPRPRPPDVPRP was -0.0127. As to RRIRNRPPRLPRPRPRPGLTPRP, the “shrunken log2 fold change” value is -0.0698. The value for RRIRLRPPRLPRPRPRPWNYPRP was -0.43; that for RRIRWRPPRLPRPRPRPTDFPRP was -0.149; that for RRIRDRPPRLPRPRPRPVIDPRP was 0.35. The value for RRIRIRPPRLPRPRPRPEYDPRP was 0.0262. RRIRDRPPRLPRPRPRPSNFPRP: the “shrunken log2 fold change” value is -0.0206.

As to RRIRGRPPRLPRPRPRPATDPRP, the “shrunken log2 fold change” value amounted to 0.531. The value for RRIRCRPPRLPRPRPRPWMGPRP was 0.439; that for RRIRKRPPRLPRPRPRPERVPRP was 0.281; that for RRIRQRPPRLPRPRPRPQTSPRP was 0.219. Next, RRIRTRPPRLPRPRPRPLWFPRP: -0.489; RRIRCRPPRLPRPRPRPQYKPRP: -0.991. Next, RRIRPRPPRLPRPRPRPRAWPRP: 0.0147; RRIRARPPRLPRPRPRPAFGPRP: 0.6. As to RRIRMRPPRLPRPRPRPMYCPRP, the “shrunken log2 fold change” value was -0.0254. Regarding RRIRHRPPRLPRPRPRPTYAPRP, the “shrunken log2 fold change” value was -0.127.

Turning to RRIRNRPPRLPRPRPRPEESPRP, the “shrunken log2 fold change” value turned out to be 0.013. Next, RRIRKRPPRLPRPRPRPPTEPRP: 0.395; RRIRYRPPRLPRPRPRPWHFPRP: -1.15; RRIRWRPPRLPRPRPRPQETPRP: -0.00116.

Take RRIRGRPPRLPRPRPRPFMYPRP: the “shrunken log2 fold change” value is 0.345. Next, RRIRKRPPRLPRPRPRPYTNPRP: -0.21; RRIRGRPPRLPRPRPRPHNMPRP: -0.285. Next, RRIRCRPPRLPRPRPRPINDPRP: -0.505.
